Biological target: T1, wild-type soluble E2 (sE2), HCV isolate H77C, residues 384-661 (UniProt P27958 384-661)
T1 chain: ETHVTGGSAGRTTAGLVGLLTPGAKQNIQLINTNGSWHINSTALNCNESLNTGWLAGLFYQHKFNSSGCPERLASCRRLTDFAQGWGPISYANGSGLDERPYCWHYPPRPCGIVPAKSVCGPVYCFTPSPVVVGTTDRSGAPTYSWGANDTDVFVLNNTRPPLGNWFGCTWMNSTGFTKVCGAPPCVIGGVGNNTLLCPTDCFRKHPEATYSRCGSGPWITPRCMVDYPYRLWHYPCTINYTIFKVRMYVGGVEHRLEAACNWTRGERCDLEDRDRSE
Assay: BLI

B1: CD81 large extracellular loop (LEL) (receptor)
chain: FVNKDQIAKDVKQFYDQALQQAVVDDDANNAKAVVKTFHETLDCCGSSTLTALTTSVLKNNLCPSGSNIISNLFKEDCHQKIDDLFSGK
- Kd: 22 nM

Reference: US20220054630A1 (published 2022)
